Target: ribosomal protein L23 (E. coli (endogenous in A19 cell extract)) (UniProt P0ADZ0)
Assay: cross-linking; zero-length EDC crosslinking of resuspended RNCs (ca. 30 nM) made in WT or Δtig A19 E. coli cell-free system (WT: TF 2–15 nM, DnaK 0.5 µM, DnaJ 0.04 µM, GrpE 0.05 µM), +/- puromycin; low-pH SDS-PAGE of the BODIPY-FL nascent chain and Western blots against L23, L24 and L29; percent crosslinking by ImageJ

| % EDC crosslinking | normalized % EDC crosslinking (per EDC-reactive residue beyond the ribosomal tunnel core) | Substance |
| --- | --- | --- |
| 27.4% | 5.5% | apoHmp_(1–55) ribosome-bound nascent chain (from UniProt P24232 1-55) (domain or fragment; other documents disagree on this pair) |
| 92% | 4.6% | apoHmp_(1–140) ribosome-bound nascent chain (from UniProt P24232 1-140) (domain or fragment; other documents disagree on this pair) |
| 85% | 2.8% | apoHmp_(1–189) ribosome-bound nascent chain (from UniProt P24232 1-189) (domain or fragment; other documents disagree on this pair) |

— PMC11137106
